# Assay results: paper PMC11551737, “Structural and functional insights into the interaction between the bacteriophage T4 DNA processing proteins gp32 and Dda” (Nucleic Acids Research, 2024)
# Where a chain is given by its changes, count along the chain named. Names may count otherwise.
# B1: gp32-A (1–254), gp32 that lacks the C-terminal region (domain or fragment)
# chain: MFKRKSTAELAAQMAKLNGNKGFSSEDKGEWKLKLDNAGNGQAVIRFLPSKNDEQAPFAILVNHGFKKNGKWYIETCSSTHGDYDSCPVCQYISKNDLYNTDNKEYSLVKRKTSYWANILVVKDPAAPENEGKVFKYRFGKKIWDKINAMIAVDVEMGETPVDVTCPWEGANFVLKVKQVSGFSNYDESKFLNQSAIPNIDDESFQKELFEQMVDLSEMTSKDKFKSFEELNTKFGQVMGTAVMGGAAATAAKK
# B2: gp32-A: gp32 lacking the C-terminal region (residues 1–254) (protein)
# chain: B1 chain
# modifications: left off: 6xHis, N-terminal, state not stated
# B3: gp32-B (21–301), gp32 that lacks the N-terminal region (domain or fragment)
# chain: KGFSSEDKGEWKLKLDNAGNGQAVIRFLPSKNDEQAPFAILVNHGFKKNGKWYIETCSSTHGDYDSCPVCQYISKNDLYNTDNKEYSLVKRKTSYWANILVVKDPAAPENEGKVFKYRFGKKIWDKINAMIAVDVEMGETPVDVTCPWEGANFVLKVKQVSGFSNYDESKFLNQSAIPNIDDESFQKELFEQMVDLSEMTSKDKFKSFEELNTKFGQVMGTAVMGGAAATAAKKADKVADDLDAFNVDDFNTKTEDDFMSSSSGSSSSADDTDLDDLLNDL
# B4: gp32-B: gp32 lacking the N-terminal region (residues 21–301) (protein)
# chain: B3 chain
# modifications: left off: 6xHis, N-terminal, state not stated
# B5: gp32 C-terminus peptide encompassing residues 248–270 (peptide)
# peptide: AATAAKKADKVADDLDAFNVDDF
# notes: also called gp32 C-terminal peptide; source: synthetic peptide
# B6: A255E/L262A mutant of gp32 peptide 248–270 (peptide, UniProt P03695 248-270, looked up)
# peptide: AATAAKKEDKVADDADAFNVDDF
# notes: probably a synthetic peptide like those of SPR analysis 1; also called mutant peptide A255E/L262A
# B7: V258E/F265A mutant of gp32 peptide 248–270 (peptide, UniProt P03695 248-270, looked up)
# peptide: AATAAKKADKEADDLDAANVDDF
# notes: probably a synthetic peptide like those of SPR analysis 1; also called mutant peptide V258E/F265A
# B8: full-length gp32 variant A255E/L262A (natural protein)
# chain: MFKRKSTAELAAQMAKLNGNKGFSSEDKGEWKLKLDNAGNGQAVIRFLPSKNDEQAPFAILVNHGFKKNGKWYIETCSSTHGDYDSCPVCQYISKNDLYNTDNKEYSLVKRKTSYWANILVVKDPAAPENEGKVFKYRFGKKIWDKINAMIAVDVEMGETPVDVTCPWEGANFVLKVKQVSGFSNYDESKFLNQSAIPNIDDESFQKELFEQMVDLSEMTSKDKFKSFEELNTKFGQVMGTAVMGGAAATAAKKEDKVADDADAFNVDDFNTKTEDDFMSSSSGSSSSADDTDLDDLLNDL
# B9: full-length gp32 variant V258E/F265A (natural protein)
# chain: B8 chain with E255A, V258E, A262L, F265A
# B10: gp32 A255E/L262A: full-length gp32 variant A255E/L262A designed to reduce gp32–Dda interactions (protein)
# chain: B8 chain
# modifications: left off: 6xHis, N-terminal, state not stated
# B11: gp32 V258E/F265A: full-length gp32 variant V258E/F265A designed to reduce gp32–Dda interactions (protein)
# chain: B8 chain with E255A, V258E, A262L, F265A
# modifications: left off: 6xHis, N-terminal, state not stated
# Key:
# [1] = target: T1, wild-type Dda/dT20 (Enterobacteria phage T4, UniProt P32270); assay type: binding, bacteriophage T4; settings: SPR, Biacore T200, 25°C; wild-type Dda/dT20 on NTA chip; average of three experiments
# T1 construct: His-tag; made in house
# T1 sequence (P32270 whole entry): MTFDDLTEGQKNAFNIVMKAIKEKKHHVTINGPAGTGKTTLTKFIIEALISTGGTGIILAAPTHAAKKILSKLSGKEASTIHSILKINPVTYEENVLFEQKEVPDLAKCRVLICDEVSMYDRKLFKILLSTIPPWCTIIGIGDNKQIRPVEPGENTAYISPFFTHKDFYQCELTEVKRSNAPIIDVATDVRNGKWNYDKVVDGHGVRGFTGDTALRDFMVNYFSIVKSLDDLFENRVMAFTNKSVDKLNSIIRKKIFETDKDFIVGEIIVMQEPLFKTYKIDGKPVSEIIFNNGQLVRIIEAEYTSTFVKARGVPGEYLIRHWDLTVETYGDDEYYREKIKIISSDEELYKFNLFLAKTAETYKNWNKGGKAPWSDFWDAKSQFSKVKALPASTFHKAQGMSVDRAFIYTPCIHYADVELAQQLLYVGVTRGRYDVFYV
# Experimental: These experiments were conducted at 25°C using a Biacore 3000 optical biosensor (Cytiva). […] The chip was primed in chelating buffer (10 mM HEPES pH 7.4, 150 mM NaCl, 50 μM EDTA, 0.005% Tween20) and was preconditioned at 10 μl/min with three 60 s injections of wash buffer (10 mM HEPES pH 8.3, 150 mM NaCl, 350 mM EDTA, 0.05% Tween20) and one 60 s injection of chelating buffer before being charged with a 60 s injection of 500 μM NiCl2 in chelating buffer. […] Any remaining active sites were blocked by Tris molecules in the binding analysis buffer (20 mM Tris-acetate pH 8.0, 150 mM NaCl, 10 mM magnesium acetate, 3 mM potassium glutamate, 1 mM TCEP, 0.05% Tween20, 10% glycerol). […] The data were processed, double-referenced and analyzed using the software package Scrubber2 (version 2.0c, BioLogic Software). The equilibrium dissociation constants (KD) were determined using steady-state analysis, specifically an equilibrium affinity analysis to fit the data to a 1:1 (Langmuir) interaction model.
# These experiments were conducted at 25°C using a Biacore T200 optical biosensor (Cytiva) and NTA chip sensor S series; Cytiva. […] Also, the data were analyzed using the Biacore T200 Evaluation software package (version 3.1).
# [2] = target: bacteriophage T4 gp32 single-stranded DNA-binding protein, full length, His-tagged (bacteriophage T4) (UniProt P03695); experiment: AUC; sedimentation velocity, 20°C, 42 000 rpm; 20 mM Tris pH 7.0, 200 mM NaCl, 0.5 mM EDTA, 5 mM β-mercaptoethanol; gp32 at 11.10 μM
# [3] = target: T2, bacteriophage T4 helicase Dda, ATPase deficient mutant K38A (bacteriophage T4, UniProt P32270 1-439, K38A); experiment: SPR; SPR analysis 1: Biacore 3000, 25°C; His-tagged Dda-K38A/dT20 immobilised on an NTA chip by capture-coupling (~5800 RU); peptides injected, 4-fold dilution series, maximum 100 μM; 20 mM Tris-acetate pH 8.0, 150 mM NaCl, 10 mM magnesium acetate, 3 mM potassium glutamate, 1 mM TCEP, 0.05% Tween20, 10% glycerol; steady-state fit, 1:1 model; settings: both partners purified
# T2 construct: Dda, SF1B helicase of bacteriophage T4, active site point mutant K38A; called His-tagged in SPR analysis 1; theoretical mass printed as 52 046 Da; also called Dda-K38A; Dda–K38A
# T2 sequence: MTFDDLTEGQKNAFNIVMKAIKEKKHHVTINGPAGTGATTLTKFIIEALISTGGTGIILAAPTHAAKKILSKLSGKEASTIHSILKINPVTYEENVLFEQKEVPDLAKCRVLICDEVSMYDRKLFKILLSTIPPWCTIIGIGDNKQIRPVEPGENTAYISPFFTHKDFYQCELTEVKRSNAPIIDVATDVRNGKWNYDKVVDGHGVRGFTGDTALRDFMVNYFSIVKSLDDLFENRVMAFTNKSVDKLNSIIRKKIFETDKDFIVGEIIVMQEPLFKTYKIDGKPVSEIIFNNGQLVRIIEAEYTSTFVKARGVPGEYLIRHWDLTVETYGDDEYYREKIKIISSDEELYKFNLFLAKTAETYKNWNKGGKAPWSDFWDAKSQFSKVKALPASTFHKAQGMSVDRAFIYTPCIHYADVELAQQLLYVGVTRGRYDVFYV
# [4] = target: T3, bacteriophage T4 helicase Dda, wild type (bacteriophage T4, UniProt P32270 1-439); experiment: SPR; wild-type Dda bound to dT20
# T3 chain: T2 sequence with A38K
# [5] = target: T4, bacteriophage T4 helicase Dda, wild type (bacteriophage T4) (UniProt P32270)
# T4 sequence: T2 sequence with A38K
# [6] = test system: wild-type Dda; experiment: Dda-dependent DNA unwinding assay with gp32 variants (fluorescein-quenched replication fork substrate, no annealing trap); assay type: biochemical, bacteriophage T4; settings: 375 nM gp32 variant, 25 nM wild-type Dda, 25 nM substrate, 2.5 mM ATP, triplicate experiments; for Rate constant of product formation (single exponential fit): 5 mM Mg(OAc)2, pH 7.5, room temperature, fluorescein fluorescence; for Amplitude of the product formation curve (fluorescence): higher amplitude = more effective prevention of reannealing
# Experimental: A partial duplex substrate mimicking a replication fork was prepared by mixing equimolar concentrations of the following oligonucleotides: loading strand - […]/36-FAM/, displaced strand - […], and leading strand - […] in 10 mM HEPES/1 mM EDTA. The sample was heated to 95°C for 5 min, followed by slowly cooling to room temperature. All concentrations are final, after mixing. ATP (2.5 mM), Mg(OAc)2 (5 mM) and gp32 (375 nM) in assay buffer (25 mM HEPES, pH 7.5, 10 mM KOAc, 0.1 mM EDTA, 2 mM β-mercaptoethanol, 1 mg/ml bovine serum albumin and 4 mM phosphoenol pyruvate) were mixed and added to wells in one row of a black 96-well plate. The reactions were initiated by adding 25 nM substrate, 25 nM wild-type Dda and 5 U/ml pyruvate kinase/lactate dehydrogenase in assay buffer with a multichannel pipette to the entire row simultaneously. Fluorescein fluorescence was measured 8 times per minute in a VICTOR Nivo Multimode Plate Reader (Perkin Elmer) at room temperature with excitation through a 480/30 nm bandpass filter and emission measured after a 530/30 nm bandpass filter.
# [7] = target: T5, bacteriophage T4 helicase Dda, wild type (bacteriophage T4, UniProt P32270 1-439); experiment: SPR; SPR analysis 2: Biacore T200, 25°C; wild-type Dda/dT20 immobilised on an NTA chip as in SPR analysis 1; peptides injected, 2-fold dilution series, 100 μM to 0.78 μM; steady-state analysis; settings: both partners purified
# T5 construct: Dda, SF1B helicase of bacteriophage T4, wild type; also called wild-type Dda
# T5 sequence (looked up): T2 sequence with A38K
molecule,measurement,setting,value
AATAAKKADKEADDLDAANVDDF [V258E/F265A],Rmax,[1],115 (+/- 5.88) RU
"bacteriophage T4 gp32 single-stranded DNA-binding protein, full length, His-tagged (from UniProt P03695 1-301) (natural protein)",stoichiometry N,[2],2
AATAAKKEDKVADDADAFNVDDF [A255E/L262A],Rmax,[1],196 (+/- 12.6) RU
"AATAAKKADKVADDLDAFNVDDFNTKTEDDFMS (peptide, UniProt P03695 248-280, looked up, source: synthetic peptide) [gp32 C-terminal peptide 248–280]",binding result,[3],binds
NTKTEDDFMSSSSGSSSSADDTDLDDLLNDL [gp32 C-terminal peptide 271–301],Kd,[4],178 µM
B1,"amplitude of the product formation curve (fluorescein fluorescence) in the Dda-dependent DNA unwinding assay without annealing trap; 375 nM gp32, 25 nM wild-type Dda, 25 nM substrate",[5],86000
B2,Rate constant of product formation (single exponential fit),[6],0.021 s⁻¹
same,Amplitude of the product formation curve (fluorescence),[6],86 000
B3,"amplitude of the product formation curve (fluorescein fluorescence) in the Dda-dependent DNA unwinding assay without annealing trap; 375 nM gp32, 25 nM wild-type Dda, 25 nM substrate",[5],200000
B4,Rate constant of product formation (single exponential fit),[6],0.013 s⁻¹
same,Amplitude of the product formation curve (fluorescence),[6],200 000
B5,binding result,[7],binds
B6,Kd,[4],504 µM
same,fold less binding than the wild-type peptide 248–270,[7],~10 fold
B7,Kd,[4],492 µM
same,fold less binding than the wild-type peptide 248–270,[7],~10 fold
B8,"amplitude of the product formation curve (fluorescein fluorescence) in the Dda-dependent DNA unwinding assay without annealing trap; 375 nM gp32, 25 nM wild-type Dda, 25 nM substrate",[5],130000
B9,"amplitude of the product formation curve (fluorescein fluorescence) in the Dda-dependent DNA unwinding assay without annealing trap; 375 nM gp32, 25 nM wild-type Dda, 25 nM substrate",[5],87000
B10,Rate constant of product formation (single exponential fit),[6],0.023 s⁻¹
same,Amplitude of the product formation curve (fluorescence),[6],130 000
B11,Rate constant of product formation (single exponential fit),[6],0.026 s⁻¹
same,Amplitude of the product formation curve (fluorescence),[6],87 000
"AATAAKKADKVADDLDAFNVDDFNT (peptide, UniProt P03695 248-272, looked up, source: synthetic peptide) [gp32 C-terminal peptide 248–272]",binding result,[3],binds
